Assay results as given in PMC10786891, “Massively parallel profiling of RNA-targeting CRISPR-Cas13d”.

T1: EsCas13d, nuclease-dead (Eubacterium siraeum, UniProt B0MS50, R295A;H300A;R849A;H854A)
T1 sequence: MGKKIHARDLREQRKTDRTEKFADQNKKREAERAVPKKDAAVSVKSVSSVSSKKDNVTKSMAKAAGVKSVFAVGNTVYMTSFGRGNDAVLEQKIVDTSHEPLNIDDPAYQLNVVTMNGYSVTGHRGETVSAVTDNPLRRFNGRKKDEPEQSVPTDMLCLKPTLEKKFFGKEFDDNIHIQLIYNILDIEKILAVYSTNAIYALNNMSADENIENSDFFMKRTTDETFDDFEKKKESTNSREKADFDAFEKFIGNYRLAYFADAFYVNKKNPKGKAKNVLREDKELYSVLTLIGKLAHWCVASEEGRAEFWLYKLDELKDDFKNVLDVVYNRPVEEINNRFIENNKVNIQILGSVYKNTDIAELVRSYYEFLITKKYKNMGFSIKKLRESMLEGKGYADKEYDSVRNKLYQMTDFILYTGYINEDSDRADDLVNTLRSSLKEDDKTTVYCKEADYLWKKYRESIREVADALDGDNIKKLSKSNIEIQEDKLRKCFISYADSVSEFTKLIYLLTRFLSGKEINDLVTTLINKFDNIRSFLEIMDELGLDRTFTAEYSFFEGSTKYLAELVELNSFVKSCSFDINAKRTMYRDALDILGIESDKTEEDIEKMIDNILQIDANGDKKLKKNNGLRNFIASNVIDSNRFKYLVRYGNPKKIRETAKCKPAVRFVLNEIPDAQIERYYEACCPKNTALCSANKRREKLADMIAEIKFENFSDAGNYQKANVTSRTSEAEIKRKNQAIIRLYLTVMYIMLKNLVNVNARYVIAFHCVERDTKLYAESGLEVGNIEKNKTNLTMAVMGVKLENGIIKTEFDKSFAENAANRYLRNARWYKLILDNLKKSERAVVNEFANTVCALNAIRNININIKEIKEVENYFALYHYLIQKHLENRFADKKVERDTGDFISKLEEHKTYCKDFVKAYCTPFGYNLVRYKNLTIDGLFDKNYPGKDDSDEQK

T2: dEsCas13d (Eubacterium siraeum, UniProt B0MS50 1-954, R295A;H300A;R849A;H854A)
T2 sequence: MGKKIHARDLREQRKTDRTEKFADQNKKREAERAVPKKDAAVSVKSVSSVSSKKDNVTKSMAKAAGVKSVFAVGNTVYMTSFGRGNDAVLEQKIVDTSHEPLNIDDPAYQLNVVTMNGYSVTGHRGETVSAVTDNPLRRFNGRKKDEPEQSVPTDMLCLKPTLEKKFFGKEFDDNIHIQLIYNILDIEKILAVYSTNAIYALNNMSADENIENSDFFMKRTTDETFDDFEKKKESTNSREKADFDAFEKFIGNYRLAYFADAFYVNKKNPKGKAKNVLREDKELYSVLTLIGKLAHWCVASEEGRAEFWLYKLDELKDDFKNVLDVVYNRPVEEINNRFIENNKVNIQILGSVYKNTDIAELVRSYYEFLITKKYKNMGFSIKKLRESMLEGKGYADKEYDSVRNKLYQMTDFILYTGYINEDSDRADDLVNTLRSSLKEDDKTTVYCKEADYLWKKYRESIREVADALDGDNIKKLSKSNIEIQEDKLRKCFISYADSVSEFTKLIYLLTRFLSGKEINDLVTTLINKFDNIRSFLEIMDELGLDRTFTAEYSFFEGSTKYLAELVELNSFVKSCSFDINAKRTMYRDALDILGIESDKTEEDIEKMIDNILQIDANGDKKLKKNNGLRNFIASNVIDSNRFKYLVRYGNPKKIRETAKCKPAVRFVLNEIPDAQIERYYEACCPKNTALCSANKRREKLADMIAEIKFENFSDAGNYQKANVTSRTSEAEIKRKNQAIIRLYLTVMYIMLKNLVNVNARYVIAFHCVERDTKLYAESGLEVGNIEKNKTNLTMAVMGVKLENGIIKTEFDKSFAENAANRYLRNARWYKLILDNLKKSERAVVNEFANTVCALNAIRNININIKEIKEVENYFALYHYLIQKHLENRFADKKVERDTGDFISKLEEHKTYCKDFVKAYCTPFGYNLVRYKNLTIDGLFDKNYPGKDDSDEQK

T3: RfxCas13d (CasRx), nuclease-dead (Ruminococcus flavefaciens, R239A;H244A;R858A;H863A)
T3 chain: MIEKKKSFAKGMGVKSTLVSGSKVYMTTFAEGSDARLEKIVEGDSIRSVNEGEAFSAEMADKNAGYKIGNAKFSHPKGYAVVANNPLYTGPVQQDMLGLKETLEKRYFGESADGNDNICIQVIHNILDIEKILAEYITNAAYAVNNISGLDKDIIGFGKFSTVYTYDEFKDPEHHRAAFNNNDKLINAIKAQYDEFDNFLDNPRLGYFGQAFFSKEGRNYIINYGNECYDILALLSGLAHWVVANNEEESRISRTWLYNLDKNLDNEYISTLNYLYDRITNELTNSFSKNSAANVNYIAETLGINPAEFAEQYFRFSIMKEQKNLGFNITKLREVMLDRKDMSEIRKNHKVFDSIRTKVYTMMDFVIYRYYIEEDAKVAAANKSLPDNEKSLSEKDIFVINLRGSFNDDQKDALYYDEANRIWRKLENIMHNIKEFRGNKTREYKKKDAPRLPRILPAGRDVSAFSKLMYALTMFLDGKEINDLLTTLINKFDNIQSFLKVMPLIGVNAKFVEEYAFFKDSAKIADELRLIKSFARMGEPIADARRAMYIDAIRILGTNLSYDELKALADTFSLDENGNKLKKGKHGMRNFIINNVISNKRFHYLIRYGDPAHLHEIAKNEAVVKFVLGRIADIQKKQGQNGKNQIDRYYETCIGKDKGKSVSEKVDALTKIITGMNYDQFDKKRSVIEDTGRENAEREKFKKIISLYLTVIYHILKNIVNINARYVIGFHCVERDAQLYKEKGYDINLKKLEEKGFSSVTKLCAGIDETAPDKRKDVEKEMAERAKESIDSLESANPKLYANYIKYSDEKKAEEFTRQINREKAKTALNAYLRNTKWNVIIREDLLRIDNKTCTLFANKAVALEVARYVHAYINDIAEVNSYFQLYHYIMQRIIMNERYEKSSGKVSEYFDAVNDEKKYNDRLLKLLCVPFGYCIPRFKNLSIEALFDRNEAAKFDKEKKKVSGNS


What was measured:
[1] = test system: dRfxCas13d (Ruminococcus flavefaciens); assay: BLI; conditions: 6 mM Mg2+; BLI: 40 mM Tris-HCl pH 7.5, 150 mM NaCl, 6 mM MgCl2, 1 mM DTT, 0.1% Tween-20, 0.2 mg/ml BSA; RNP 25-100 nM (dRfx 25 nM only); temperature not stated
EsCas13d, nuclease-dead [2] = biological target: T1, EsCas13d, nuclease-dead; assay: BLI; crRNA (strand 1, pre-loaded); Mg2+; 40 mM Tris-HCl pH 7.5, 150 mM NaCl, 6 mM MgCl2, 1 mM DTT, 0.1% Tween-20, 0.2 mg/ml BSA; temperature not stated; conditions: tags: His6-TwinStrep-SUMO cleaved; label: 3' biotin on strand 2
EsCas13d, nuclease-dead [3] = biological target: T1, EsCas13d, nuclease-dead; assay: as above; conditions: tags: His6-TwinStrep-SUMO cleaved; label: 3' biotin on strand 2; remark: listed apart in the source
dEsCas13d = biological target: T2, dEsCas13d; assay: BLI; 6 mM Mg2+; BLI: 40 mM Tris-HCl pH 7.5, 150 mM NaCl, 6 mM MgCl2, 1 mM DTT, 0.1% Tween-20, 0.2 mg/ml BSA; RNP 25-100 nM (dRfx 25 nM only); temperature not stated; conditions: protein: recombinant, tags: 6xHis-TwinStrep-SUMO, cleaved, 22 nt crRNA-target match
[4] = biological target: T3, RfxCas13d (CasRx), nuclease-dead; assay: BLI; crRNA (strand 1, pre-loaded); Mg2+; 40 mM Tris-HCl pH 7.5, 150 mM NaCl, 6 mM MgCl2, 1 mM DTT, 0.1% Tween-20, 0.2 mg/ml BSA; temperature not stated; conditions: tags: His6-TwinStrep-SUMO cleaved; label: 3' biotin on strand 2

Molecule	Kd [4] [nM]	other results
AACCCCUACCAACUGGUCGGGGUUUGAAACUGAGCGGAUAACCUCUCUAUGG / CCACAUCUACGAAUUCGUACCAUAGAGAGGUUAUCCGAUCACCGAGAUCGGAAGAGCACA [Rfx crRNA_Target 1 / C4A]	–	Kd [1]: 0.132 nM
crRNA-1 (MT) target (mixed) RNA 1: CACCCGUGCAAAAUUGCAGGGGUCUAAAACUUUUGGUUGACCACAUCUUGAA RNA 2: UUGGAAAACUUCAAGAUGUGGUCAACCAAAAUGCACAAGC	–	koff (EsCas13d, nuclease-dead [2]): 0.00038 s⁻¹; kon (EsCas13d, nuclease-dead [2]): 96000 M⁻¹ s⁻¹; Kd (EsCas13d, nuclease-dead [3]): 4 nM
crRNA_Target 1 / MT (5'-GUA PFS) (ssRNA) RNA 1: CACCCGUGCAAAAAUGCAGGGGUCUAAAACUGAGCGGAUAACCUCUCUAUGG RNA 2: CCACAUCUACGAAUUCGUACCAUAGAGAGGUUAUCCGCUCACCGAGAUCGGAAGAGCACA	–	Kd (dEsCas13d; label: 3' biotin on target): 3.1 ± 0.018 nM
target 1 G15A (60-mer) (mixed) RNA 1: AACCCCUACCAACUGGUCGGGGUUUGAAACUGAGCGGAUAACCUCUCUAUGG RNA 2: CCACAUCUACGAAUUCGUACCAUAGAAAGGUUAUCCGCUCACCGAGAUCGGAAGAGCACA	~0.119	–
target 1 3'-GUU (60-mer) (mixed) RNA 1: CACCCGUGCAAAAAUGCAGGGGUCUAAAACUGAGCGGAUAACCUCUCUAUGG RNA 2: CCACAUCUACGAAUUCGUACCAUAGAGAGGUUAUCCGCUCAGUUAGAUCGGAAGAGCACA	–	koff (EsCas13d, nuclease-dead [2]): 0.0011 s⁻¹; kon (EsCas13d, nuclease-dead [2]): 250000 M⁻¹ s⁻¹; Kd (EsCas13d, nuclease-dead [3]): 4.4 nM
target 1 C22A (60-mer) (mixed) RNA 1: AACCCCUACCAACUGGUCGGGGUUUGAAACUGAGCGGAUAACCUCUCUAUGG RNA 2: CCACAUCUACGAAUUCGUAACAUAGAGAGGUUAUCCGCUCACCGAGAUCGGAAGAGCACA	~0.291	–
target 1 U10G (60-mer) (mixed) RNA 1: AACCCCUACCAACUGGUCGGGGUUUGAAACUGAGCGGAUAACCUCUCUAUGG RNA 2: CCACAUCUACGAAUUCGUACCAUAGAGAGGUGAUCCGCUCACCGAGAUCGGAAGAGCACA	~0.271	–
target 1 A18G (60-mer) (mixed) RNA 1: AACCCCUACCAACUGGUCGGGGUUUGAAACUGAGCGGAUAACCUCUCUAUGG RNA 2: CCACAUCUACGAAUUCGUACCAUGGAGAGGUUAUCCGCUCACCGAGAUCGGAAGAGCACA	~0.886	–
target 1 G5U (60-mer) (mixed) RNA 1: AACCCCUACCAACUGGUCGGGGUUUGAAACUGAGCGGAUAACCUCUCUAUGG RNA 2: CCACAUCUACGAAUUCGUACCAUAGAGAGGUUAUCCUCUCACCGAGAUCGGAAGAGCACA	~1.12	–
target 1 C4A (60-mer) (mixed) RNA 1: AACCCCUACCAACUGGUCGGGGUUUGAAACUGAGCGGAUAACCUCUCUAUGG RNA 2: CCACAUCUACGAAUUCGUACCAUAGAGAGGUUAUCCGAUCACCGAGAUCGGAAGAGCACA	~0.132	–
target 1 C7A (60-mer) (mixed) RNA 1: AACCCCUACCAACUGGUCGGGGUUUGAAACUGAGCGGAUAACCUCUCUAUGG RNA 2: CCACAUCUACGAAUUCGUACCAUAGAGAGGUUAUACGCUCACCGAGAUCGGAAGAGCACA	~0.175	–
target 1 C2G (60-mer) (mixed) RNA 1: AACCCCUACCAACUGGUCGGGGUUUGAAACUGAGCGGAUAACCUCUCUAUGG RNA 2: CCACAUCUACGAAUUCGUACCAUAGAGAGGUUAUCCGCUGACCGAGAUCGGAAGAGCACA	~0.109	–
target 1 A20C (60-mer) (mixed) RNA 1: AACCCCUACCAACUGGUCGGGGUUUGAAACUGAGCGGAUAACCUCUCUAUGG RNA 2: CCACAUCUACGAAUUCGUACCCUAGAGAGGUUAUCCGCUCACCGAGAUCGGAAGAGCACA	~0.556	–
crRNA_Target 1 / U9-flanked target (ssRNA) RNA 1: CACCCGUGCAAAAAUGCAGGGGUCUAAAACUGAGCGGAUAACCUCUCUAUGG RNA 2: UUUUUUUUUCCAUAGAGAGGUUAUCCGCUCAUUUUUUUUU	–	Kd (dEsCas13d): 1.6 ± 0.024 nM
target 1 MT (60-mer) (mixed) RNA 1: AACCCCUACCAACUGGUCGGGGUUUGAAACUGAGCGGAUAACCUCUCUAUGG RNA 2: CCACAUCUACGAAUUCGUACCAUAGAGAGGUUAUCCGCUCACCGAGAUCGGAAGAGCACA	~0.104	–
